Literature values as cited in US11795481B2, “Processes for producing a fermentation product” (Novozymes A/S, priority 2017, dated 2023).

Conditions: relative to the parent Penicillium oxalicum glucoamylase; cited from earlier work

B1: PE001: variant of the Penicillium oxalicum glucoamylase of SEQ ID NO: 106 having a K79V substitution (protein, listed as Penicillium oxalicum)
chain: RPDPKGGNLTPFIHKEGERSLQGILDNLGGRGKKTPGTAAGLFIASPNTENPNYYYTWTRDSALTAKCLIDLFEDSRAVFPIDRKYLETGIRDYKSSQAILQSVSNPSGTLKDGSGLGEPKFEIDLNPFSGAWGRPQRDGPALRATAMITYANYLISHGQKSDVSQVMWPIIANDLAYVGQYWNNTGFDLWEEVDGSSFFTIAVQHRALVEGSQLAKKLGKSCDACDSQPPQILCFLQSFWNGKYITSNINTQASRSGIDLDSVLGSIHTFDPEAACDDATFQPCSARALANHKVYVDSFRSIYKINAGLAEGSAANVGRYPEDVYQGGNPWYLATLGASELLYDALYQWDRLGKLEVSETSLSFFKDFDATVKIGSYSRNSKTYKKLTQSIKSYADGFIQLVQQYTPSNGSLAEQYDRNTAAPLSANDLTWSFASFLTATQRRDAVVPPSWGAKSANKVPTTCSASPVVGTYKAPTATFSSKTKCVPAKDIVPITFYLIENTYYGENVFMSGNITALGNWDAKKGFPLTANLYTQDQNLWFASVEFIPAGTPFEYKYYKVEPNGDITWEKGPNRVFVAPTGCPVQPHSNDVWQF
sensitivity to protease degradation: reduced sensitivity to protease degradation relative to the parent
